Earlier results as cited in paper PMC5342629.
pKd: −log10 of the molar value. Like-named read-outs stand apart in the source and are kept apart here.

Key:
[1] = biological target: Cdc4 (Saccharomyces cerevisiae) (UniProt P07834)
[2] = biological target: Cdc4 (Saccharomyces cerevisiae) (UniProt P07834); remark: listed apart in the source
[3] = biological target: Cdc4 (Saccharomyces cerevisiae) (UniProt P07834); remark: listed apart in the source

UniProt P07834, sequence (P07834 whole entry): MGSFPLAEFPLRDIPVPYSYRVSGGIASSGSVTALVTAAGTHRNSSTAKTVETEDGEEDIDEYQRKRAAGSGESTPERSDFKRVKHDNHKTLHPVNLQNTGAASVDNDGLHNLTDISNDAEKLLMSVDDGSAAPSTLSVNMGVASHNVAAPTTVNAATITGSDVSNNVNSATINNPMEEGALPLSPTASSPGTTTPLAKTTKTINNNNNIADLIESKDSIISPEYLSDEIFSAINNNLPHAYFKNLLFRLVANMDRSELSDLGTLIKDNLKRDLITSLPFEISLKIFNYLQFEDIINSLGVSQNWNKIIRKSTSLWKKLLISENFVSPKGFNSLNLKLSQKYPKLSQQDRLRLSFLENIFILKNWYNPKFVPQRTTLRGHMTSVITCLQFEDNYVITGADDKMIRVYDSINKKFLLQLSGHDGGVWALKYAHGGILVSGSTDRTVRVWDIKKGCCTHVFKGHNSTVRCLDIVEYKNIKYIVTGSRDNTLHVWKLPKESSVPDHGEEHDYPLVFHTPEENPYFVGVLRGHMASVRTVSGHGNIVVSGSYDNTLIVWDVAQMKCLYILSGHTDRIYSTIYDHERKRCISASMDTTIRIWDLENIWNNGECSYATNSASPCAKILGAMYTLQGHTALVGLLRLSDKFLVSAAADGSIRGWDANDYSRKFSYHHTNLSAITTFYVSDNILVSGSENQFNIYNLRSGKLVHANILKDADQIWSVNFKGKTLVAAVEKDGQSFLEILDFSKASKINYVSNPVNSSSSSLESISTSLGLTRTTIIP

pKd [1]	pKd [2]	pKd [3]	Substance
5.62			Sic1 20-residue peptide (from UniProt P38634)
	6.00	< 4.30	Sic1 (from UniProt P38634)
